# Data: publication PMC9615034
# Values joined by “and” are separate entries in the source; they are usually repeats but may differ in a detail not shown here. Identical values can stand only once. Like-named read-outs stand apart in the source and are kept apart here.
# B1: SPIN-aureus (Staphylococcal Peroxidase Inhibitor from Staphylococcus aureus) (natural protein)
# chain: SQNGLVLHDDANFLEHELSYIDVLLDKNADQATKDNLRSYFADKGLHSIKDIINKAKQDGFDVSKYEHVK
# B2: SPIN-truncated (domain or fragment)
# chain: LEHELSYIDVLLDKNADQATKDNLRSYFADKGLHSIKDIINKAKQDGFDVSKYEHVK
# What was measured:
# [1] = biological target: myeloperoxidase (Homo sapiens) (UniProt P05164); details: cited from earlier work
# [2] = biological target: myeloperoxidase (Homo sapiens) (UniProt P05164); details: cited from earlier work; remark: listed apart in the source
# [3] = biological target: Myeloperoxidase (native) (Homo sapiens) (UniProt P05164); experiment: SPR; details: cited from earlier work
# [4] = biological target: myeloperoxidase (Homo sapiens) (UniProt P05164); experiment: SPR; details: cited from earlier work
# [5] = biological target: mature dimeric human leukocyte myeloperoxidase (human) (UniProt P05164)
# [6] = biological target: biotinylated native human leukocyte myeloperoxidase (human) (UniProt P05164); experiment: SPR; Biacore T200; biotinylated native MPO reversibly immobilised on a CAP chip (Biotin CAPture kit) to 500 RU; SPIN variants injected, 2-64 nM (legend: 32-2 nM), single cycle kinetics; RT; PBS, 0.05% Tween 20, 0.1% BSA; two-state model for SPIN-aureus, 1:1 model for SPIN-truncated
# [7] = biological target: mature dimeric human leukocyte myeloperoxidase (human) (UniProt P05164); remark: listed apart in the source
# [8] = biological target: mature dimeric human leukocyte myeloperoxidase (human) (UniProt P05164); experiment: ITC; 10 μM MPO in the cell, 150 μM SPIN variant as titrant, 19 injections of 3 μl; 50 mM phosphate buffer pH 7.4 or pH 5; one-site binding model
molecule,measurement,setting,value
SPIN-truncated C-terminal domain (from UniProt A0A0H3K703),Kd,[1],10 nM
SPIN-aureus (from UniProt A0A0H3K703),Kd,[2],10 nM
same,Kd,[3],15.9 nM and 9.3 nM
same,Kd,[4],11.8 nM
SPIN-truncated CTD (from UniProt A0A0H3K703),Kd,[3],29.8 nM
same,Kd,[4],35.1 nM
B1,"shift of the Tm of MPO by DSC, MPO with SPIN-aureus against MPO alone, pH 5",[5],5 °C
same,"shift of the Tm of MPO by DSC, MPO with SPIN-aureus against MPO alone, pH 7.4",[5],1.5 °C
same,Kd,[6],0.005 nM
same,"koff1 (two-state model, first step)",[6],0.005 s⁻¹
same,"koff2 (two-state model, second step)",[6],3.5e-06 s⁻¹
same,"kon1 (two-state model, first step)",[6],590000 M⁻¹ s⁻¹
same,"half maximal inhibition time IT50 of the bromination activity of MPO, first phase (incubation 0-5 min, ∼80% total inhibition)",[7],2.4 s
same,"half maximal inhibition time IT50 of the bromination activity of MPO, second phase (incubation 5-120 min)",[7],24 min
same,"inhibition of the bromination activity of MPO (MCD assay, pH 5) after preincubation with SPIN-aureus for 0 to 120 min",[7],99.5%
B2,Kd,[6],21 nM
same,koff,[6],0.016 s⁻¹
same,kon,[6],110000 M⁻¹ s⁻¹
same,Kd,[8],5.9 nM
same,dH,[8],-17.4 kcal/mol
